How the values were obtained:
[1] = target: T1, FL Twinkle (mitochondrial helicase) (Homo sapiens, UniProt Q96RR1 43-684); assay: fluorescence anisotropy; 50 mM NaCl (error exceeds value); 50 mM Tris acetate pH 7.5, 10% glycerol, 0.05% Tween-20, 0.5 mM DTT, 0 or 50 mM NaCl; 2.5 nM DNA; no Mg2+ or nucleotide listed; temperature not stated; settings: protein: recombinant; tags: SUMO tag removed (ULP1); chain copies: 6; label: 3' fluorescein-T; single strand
T1 sequence: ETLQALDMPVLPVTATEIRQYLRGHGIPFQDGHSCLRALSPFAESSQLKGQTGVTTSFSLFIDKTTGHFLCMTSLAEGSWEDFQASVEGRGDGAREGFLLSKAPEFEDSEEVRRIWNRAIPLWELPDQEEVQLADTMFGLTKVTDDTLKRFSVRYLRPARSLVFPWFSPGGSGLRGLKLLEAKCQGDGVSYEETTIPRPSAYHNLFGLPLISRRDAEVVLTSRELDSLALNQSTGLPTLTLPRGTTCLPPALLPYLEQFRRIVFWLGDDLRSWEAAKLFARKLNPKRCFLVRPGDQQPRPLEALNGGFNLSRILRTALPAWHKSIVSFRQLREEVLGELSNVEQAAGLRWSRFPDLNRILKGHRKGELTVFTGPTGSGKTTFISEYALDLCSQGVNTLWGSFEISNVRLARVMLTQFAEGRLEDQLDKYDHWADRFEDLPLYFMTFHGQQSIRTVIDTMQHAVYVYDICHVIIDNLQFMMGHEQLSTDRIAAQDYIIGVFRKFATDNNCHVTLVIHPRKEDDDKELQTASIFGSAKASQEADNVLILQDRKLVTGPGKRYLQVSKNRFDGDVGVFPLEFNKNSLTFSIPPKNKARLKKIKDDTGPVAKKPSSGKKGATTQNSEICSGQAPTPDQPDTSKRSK

[2] = target: T2, Twinkle NTD (Homo sapiens, UniProt Q96RR1 43-372); assay: fluorescence anisotropy; no NaCl added; negligible binding; 50 mM Tris acetate pH 7.5, 10% glycerol, 0.05% Tween-20, 0.5 mM DTT, 0 or 50 mM NaCl; 2.5 nM DNA; no Mg2+ or nucleotide listed; temperature not stated; settings: protein: recombinant; tags: SUMO tag removed (ULP1); label: 3' fluorescein-T; single strand
T2 sequence: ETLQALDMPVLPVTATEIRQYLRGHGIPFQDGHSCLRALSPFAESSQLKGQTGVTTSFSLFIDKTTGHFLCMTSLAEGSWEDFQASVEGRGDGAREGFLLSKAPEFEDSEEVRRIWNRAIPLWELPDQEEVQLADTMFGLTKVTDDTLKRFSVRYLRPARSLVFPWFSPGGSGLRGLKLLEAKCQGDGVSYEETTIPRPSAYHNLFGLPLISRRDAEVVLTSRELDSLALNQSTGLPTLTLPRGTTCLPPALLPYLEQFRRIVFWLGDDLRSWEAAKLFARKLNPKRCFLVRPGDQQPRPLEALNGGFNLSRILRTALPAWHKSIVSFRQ

[3] = target: T1, FL Twinkle (mitochondrial helicase); assay: fluorescence anisotropy; no NaCl added; 50 mM Tris acetate pH 7.5, 10% glycerol, 0.05% Tween-20, 0.5 mM DTT, 0 or 50 mM NaCl; 2.5 nM DNA; no Mg2+ or nucleotide listed; temperature not stated; settings: protein: recombinant; tags: SUMO tag removed (ULP1); chain copies: 6; label: 3' fluorescein-T; single strand
[4] = target: T3, Twinkle CTD (C-terminal domain plus linker) (Homo sapiens, UniProt Q96RR1 360-684); assay: as above; settings: protein: recombinant; tags: SUMO tag removed (ULP1); chain copies: 6; label: 3' fluorescein-T; single strand
T3 sequence: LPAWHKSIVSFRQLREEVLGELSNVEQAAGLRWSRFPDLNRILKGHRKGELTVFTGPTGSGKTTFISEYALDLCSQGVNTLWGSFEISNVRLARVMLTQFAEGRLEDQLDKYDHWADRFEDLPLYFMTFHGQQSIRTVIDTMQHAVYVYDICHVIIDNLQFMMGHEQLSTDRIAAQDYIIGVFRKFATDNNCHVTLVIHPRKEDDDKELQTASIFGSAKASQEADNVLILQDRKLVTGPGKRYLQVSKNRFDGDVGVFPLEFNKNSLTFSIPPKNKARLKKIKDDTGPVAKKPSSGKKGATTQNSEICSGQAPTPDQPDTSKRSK

[5] = target: T1, FL Twinkle (mitochondrial helicase); assay: fluorescence anisotropy; 50 mM NaCl; 50 mM Tris acetate pH 7.5, 10% glycerol, 0.05% Tween-20, 0.5 mM DTT, 0 or 50 mM NaCl; 2.5 nM DNA; no Mg2+ or nucleotide listed; temperature not stated; settings: protein: recombinant; tags: SUMO tag removed (ULP1); chain copies: 6; label: 3' fluorescein-T; single strand
[6] = target: T2, Twinkle NTD; assay: fluorescence anisotropy; no NaCl added; 50 mM Tris acetate pH 7.5, 10% glycerol, 0.05% Tween-20, 0.5 mM DTT, 0 or 50 mM NaCl; 2.5 nM DNA; no Mg2+ or nucleotide listed; temperature not stated; settings: protein: recombinant; tags: SUMO tag removed (ULP1); label: 3' fluorescein-T; single strand
[7] = target: the molecule itself; assay: SEC; Superdex 200 Increase 10/300 GL, 4 °C, 0.3 ml/min; 50 μl of 10 μM (monomer) CTD in 50 mM Tris-Cl pH 7.1, 5% glycerol, 600 mM NaCl; size from a calibration curve of protein standards
[8] = target: T3, Twinkle CTD (C-terminal domain plus …); assay: fluorescence anisotropy; 50 mM NaCl; 50 mM Tris acetate pH 7.5, 10% glycerol, 0.05% Tween-20, 0.5 mM DTT, 0 or 50 mM NaCl; 2.5 nM DNA; no Mg2+ or nucleotide listed; temperature not stated; settings: protein: recombinant; tags: SUMO tag removed (ULP1); chain copies: 6; label: 3' fluorescein-T; single strand
[9] = target: T2, Twinkle NTD; assay: fluorescence anisotropy; no NaCl added; weak phase of two-site fit; 50 mM Tris acetate pH 7.5, 10% glycerol, 0.05% Tween-20, 0.5 mM DTT, 0 or 50 mM NaCl; 2.5 nM DNA; no Mg2+ or nucleotide listed; temperature not stated; settings: protein: recombinant; tags: SUMO tag removed (ULP1); label: 3' fluorescein-T; single strand
[10] = target: T2, Twinkle NTD; assay: fluorescence anisotropy; no NaCl added; tight phase of two-site fit; 50 mM Tris acetate pH 7.5, 10% glycerol, 0.05% Tween-20, 0.5 mM DTT, 0 or 50 mM NaCl; 2.5 nM DNA; no Mg2+ or nucleotide listed; temperature not stated; settings: protein: recombinant; tags: SUMO tag removed (ULP1); label: 3' fluorescein-T; single strand
[11] = target: the molecule itself; assay: SEC; Superdex 200 Increase 10/300 GL, 4 °C, 0.3 ml/min; 15 μl of 38.5 μM (monomer) FL Twinkle in 50 mM Tris-Cl pH 7.1, 5% glycerol, 300 mM NaCl, 1 mM TCEP; size from a calibration curve of protein standards

TGAACACT (ssDNA) [8 nt ssDNA] was tested, and the Kd [1] was 10 ± 12 nM, the binding result [2] was “no binding” and the Kd [3] was 9 ± 4.9 nM. It also gave a Kd [4] of 116 ± 41 nM.

Work on AACTCTTGAACACT (ssDNA) [14 nt ssDNA] yielded a Kd [5] of 39 ± 16 nM, a Kd [3] of 3.3 ± 0.7 nM and a Kd [4] of 8.8 ± 1.5 nM. The Kd [6] was 121 ± 26 nM.

B1: Twinkle C-terminal domain plus linker (amino acids 360-684) (domain or fragment, human, UniProt Q96RR1 360-684, looked up)
chain: LPAWHKSIVSFRQLREEVLGELSNVEQAAGLRWSRFPDLNRILKGHRKGELTVFTGPTGSGKTTFISEYALDLCSQGVNTLWGSFEISNVRLARVMLTQFAEGRLEDQLDKYDHWADRFEDLPLYFMTFHGQQSIRTVIDTMQHAVYVYDICHVIIDNLQFMMGHEQLSTDRIAAQDYIIGVFRKFATDNNCHVTLVIHPRKEDDDKELQTASIFGSAKASQEADNVLILQDRKLVTGPGKRYLQVSKNRFDGDVGVFPLEFNKNSLTFSIPPKNKARLKKIKDDTGPVAKKPSSGKKGATTQNSEICSGQAPTPDQPDTSKRSK
notes: human mitochondrial helicase Twinkle, amino acids 360-684 (linker region and C-terminal domain; 36,650 Da); Cloned in the pET28 SUMO expression vector; SUMO cut with ULP1 SUMO-protease; the fusion was purified on Ni resin, so it probably carried a His tag that left with SUMO; also called CTD; Twinkle CTD; source: E. coli Rosetta 2 DE3 pLacI, purified (PEI, ammonium sulfate, Ni-NTA, heparin)
B1 was tested, and the “stoichiometry N” value [7] was roughly 12 subunit.

CTCTTGAACACT (ssDNA) [12 nt ssDNA] showed a Kd [5] of 53 ± 17 nM, a Kd [3] of 5.2 ± 1 nM and a Kd [4] of 21.7 ± 3 nM. For the same binder, the Kd [6] was 141 ± 25 nM.

TGCTATAACTCTTGAACACT (ssDNA) [20 nt ssDNA] showed a Kd [5] of 8.8 ± 1.3 nM, a Kd [8] of 50 ± 11 nM and a Kd [9] of 1200 ± 640 nM. It also gave a Kd [3] of 1.9 ± 0.5 nM, a Kd [4] of 2.2 ± 0.7 nM and a Kd [10] of 18 ± 7 nM.

TGTGTTAGTTGGGGGGTGACTGTTAAAAGT (ssDNA) [30 nt ssDNA] gave a Kd [5] of 2.6 ± 0.5 nM, a Kd [8] of 4.5 ± 0.9 nM and a Kd [9] of 730 ± 450 nM. The Kd [3] was 1.6 ± 0.3 nM, the Kd [4] was 1.7 ± 0.5 nM and the Kd [10] was 17.5 ± 4 nM.

B2: full-length (FL) human Twinkle (amino acids 43-684) (enzyme, UniProt Q96RR1 43-684, looked up)
chain: ETLQALDMPVLPVTATEIRQYLRGHGIPFQDGHSCLRALSPFAESSQLKGQTGVTTSFSLFIDKTTGHFLCMTSLAEGSWEDFQASVEGRGDGAREGFLLSKAPEFEDSEEVRRIWNRAIPLWELPDQEEVQLADTMFGLTKVTDDTLKRFSVRYLRPARSLVFPWFSPGGSGLRGLKLLEAKCQGDGVSYEETTIPRPSAYHNLFGLPLISRRDAEVVLTSRELDSLALNQSTGLPTLTLPRGTTCLPPALLPYLEQFRRIVFWLGDDLRSWEAAKLFARKLNPKRCFLVRPGDQQPRPLEALNGGFNLSRILRTALPAWHKSIVSFRQLREEVLGELSNVEQAAGLRWSRFPDLNRILKGHRKGELTVFTGPTGSGKTTFISEYALDLCSQGVNTLWGSFEISNVRLARVMLTQFAEGRLEDQLDKYDHWADRFEDLPLYFMTFHGQQSIRTVIDTMQHAVYVYDICHVIIDNLQFMMGHEQLSTDRIAAQDYIIGVFRKFATDNNCHVTLVIHPRKEDDDKELQTASIFGSAKASQEADNVLILQDRKLVTGPGKRYLQVSKNRFDGDVGVFPLEFNKNSLTFSIPPKNKARLKKIKDDTGPVAKKPSSGKKGATTQNSEICSGQAPTPDQPDTSKRSK
notes: human mitochondrial helicase Twinkle, amino acids 43-684; SUMO fusion cut with ULP1 SUMO-protease; the fusion was purified on Ni resin, so it probably carried a His tag that left with SUMO; also called FL Twinkle; TWNK; source: E. coli Rosetta 2 DE3 pLacI, purified (PEI, ammonium sulfate, Ni sepharose, Q sepharose, heparin)
B2 was tested, and the “stoichiometry N” value [11] was roughly 7 subunits.

ATAACTCTTGAACACT (ssDNA) [16 nt ssDNA] showed a Kd [5] of 22.6 ± 5.1 nM, a Kd [3] of 2.8 ± 0.7 nM and a Kd [4] of 5.2 ± 1.4 nM. The Kd [6] was 105 ± 24 nM.
